Series [1] addresses T1, Card1 (Tresu_2185, Cad1) (Treponema succinifaciens, UniProt F2NWD3 1-372).
T1 sequence: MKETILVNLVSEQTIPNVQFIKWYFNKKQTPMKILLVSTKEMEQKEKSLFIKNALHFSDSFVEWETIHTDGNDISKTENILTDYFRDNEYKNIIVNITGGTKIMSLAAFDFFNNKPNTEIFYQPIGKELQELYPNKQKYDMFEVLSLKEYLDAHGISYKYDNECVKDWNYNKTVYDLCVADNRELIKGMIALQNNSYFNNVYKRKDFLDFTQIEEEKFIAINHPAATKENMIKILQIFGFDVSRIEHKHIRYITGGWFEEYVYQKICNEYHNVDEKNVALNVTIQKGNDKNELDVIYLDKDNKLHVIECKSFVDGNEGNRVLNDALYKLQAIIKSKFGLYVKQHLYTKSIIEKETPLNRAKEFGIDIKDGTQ
The experiment in a line: ITC. In general terms: In ITC the heat of successive injections is recorded.

Series [2] has as its target T2, Card1 D294N (Treponema succinifaciens, UniProt F2NWD3 1-372, D294N).
T2 sequence: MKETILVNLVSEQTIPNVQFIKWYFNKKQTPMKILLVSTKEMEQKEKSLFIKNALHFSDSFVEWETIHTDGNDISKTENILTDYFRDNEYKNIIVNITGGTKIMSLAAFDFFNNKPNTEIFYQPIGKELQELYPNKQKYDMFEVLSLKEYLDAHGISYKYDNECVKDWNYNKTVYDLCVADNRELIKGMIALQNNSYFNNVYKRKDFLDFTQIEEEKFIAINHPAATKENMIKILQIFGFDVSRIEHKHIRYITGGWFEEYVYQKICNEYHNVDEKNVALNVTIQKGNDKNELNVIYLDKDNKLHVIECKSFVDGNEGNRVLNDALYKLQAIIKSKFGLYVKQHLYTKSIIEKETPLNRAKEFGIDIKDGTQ
The experiment in a line: crystal structure.

As a reminder, the Kd is the free concentration of one partner at which half of the binding sites on the other are occupied at equilibrium, for simple one-to-one binding. A high value points to weaker binding. On to AAAAAA (ssRNA, cyclic 3'-5' oligoadenylate; no free ends) [cA6 (cyclic hexaadenylate)], for which the Kd in series [1] came to 78 nM. This counts as double-digit nanomolar.

Consider AAAA (ssRNA, cyclic 3'-5' oligoadenylate; no free ends) [cA4 (cyclic tetraadenylate)], for which the binding result in series [2] is recorded as “binds”. Further, in series [1], binding was characterised by a dissociation constant (Kd) of 15 nM.

The record behind these values is publication PMC7906951.
